Measured values: PMC5381515 (Structure (London, England : 1993), 2017)
Each block holds one molecule with its values, some of them ahead of it.

Legend:
[1] = molecular target: truncated human βB2-crystallin (14–194) (human); assay: SEC-MALS
[2] = molecular target: the molecule itself; assay: SEC-MALS

stoichiometry N [1]: 2
Molecule: truncated human βB2-crystallin (14–194) (domain or fragment)

B1: full-length human βB2-crystallin (natural protein, UniProt P43320 1-205, looked up)
chain: MASDHQTQAGKPQSLNPKIIIFEQENFQGHSHELNGPCPNLKETGVEKAGSVLVQAGPWVGYEQANCKGEQFVFEKGEYPRWDSWTSSRRTDSLSSLRPIKVDSQEHKIILYENPNFTGKKMEIIDDDVPSFHAHGYQEKVSSVRVQSGTWVGYQYPGYRGLQYLLEKGDYKDSSDFGAPHPQVQSVRRIRDMQWHQRGAFHPSN
stoichiometry N [2]: 2
